Tests used:
[1] = biological target: T1, SARS-CoV-2 RBD protein (321–591) (SARS-CoV-2, Wuhan-Hu-1 (MN908947), UniProt P0DTC2); assay: cell-based or functional assay
[2] = biological target: T1, SARS-CoV-2 RBD protein (321–591); assay: SPR; details: both partners purified

B1: S309H-XG81L (antibody, V domains shown)
VH: not shown
VL: DIQMTQSPSSLSASVGDRVTITCRASQSISSSLNWYQQKPGKAPKLLIYAASNLQSGVPSRFSGSGSGTDFTLTISSLQPEDFATYYCQQSFSTLFTFGPGTKVDLK
notes: also called rAb S309H-XG81L
IC50 of neutralisation of authentic SARS-CoV-2 on Vero E6 cells (CPE assay) [1]: 1.25 µg/mL
Kd [2]: 21.1 nM
